Reference: the supplement of paper PMC9170038

Test system: MS2 coat protein
Assay: apparent KD of MS2 coat protein; designed switch direction (-1 OFF switch, 1 ON switch): 1; higher = weaker reporter binding
How it was run: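 For each design, the apparent KD is the median over clusters of curves fitted to normalised cluster fluorescence. Clusters held RNA switches with common flanks, transcribed on Illumina chips by stalled E. coli RNA polymerase. These were titrated with SNAP-549-labelled MS2 coat protein, doubling from 0.7 or 1.5 nM to 3 µM, without input, with 200 uM small-molecule ligand, or with an oligonucleotide input.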

[1] = input ligand: microRNA oligo, concentration not stated
[2] = Eterna round: R95, input ligand: FMN 200 uM
[3] = Eterna round: R95, input ligand: microRNA oligo, concentration not stated
[4] = Eterna round: R95, input ligand: none

Row | Sequence | apparent KD of MS2 coat protein (input ligand: FMN 200 uM) [nM] | apparent KD of MS2 coat protein [1] [nM] | apparent KD of MS2 coat protein (input ligand: none) [nM] | apparent KD of MS2 coat protein [2] [nM] | apparent KD of MS2 coat protein [3] [nM] | apparent KD of MS2 coat protein [4] [nM]
1 | ACAUGAGGAUCACCCAUGUAUGCUCAGGAAACUGUGCAGCAUUAGGAUAUGGAUCCUAAUUGGAUCCAGAAGGAGUGAAUUAUU [Fiskers NG3ss - 26] (Eterna round: R96, puzzle: Same State NG 3) | 82.2 | 117 | 126 |  |  | 
2 | ACCCGAAGUAUAUGGGAACAAGCUUUUUAACAUGAGGAUCACCCAUGUACUCGUCUUAUAAGCAGUCGAAAGACUGC [Sensor 100 - 5] (puzzle: Sensor for hsa-mir-208a) |  |  |  | 21.7 | 17.3 | 44.5
3 | ACGCAGCUGGGUAAGGAUAUCGGUGGUAAAACAUGAGGAUCACCCAUGUCCGAAGCUCGGACUUCCGAGAAGGUGCCCGGCUGCG [Soinraesar Omei Mod 6] (puzzle: Same State 2) |  |  |  | 23.8 | 222 | 218
4 | ACGCAGCUGGGUGAGGAUAUUGGUGGUACAACAUGAGGAUCACCCAUGUCCGAAGCUCGGACCUCCGAGAAGGCGCCCGGCUGCG [Soinraesar Omei Mod 4] (puzzle: Same State 2) |  |  |  | 39.7 | 269 | 912
5 | AGAAUGCACAUGAGGAUCACCCAUGUACCCGGCUGGCAUUUGCAGGAUAUGCCGCGGCGAGCCCAGCAGAAGGGCAAGUGCUAA [Eternabot solution 4] (Eterna round: R96, puzzle: Same State NG 3) | 25.8 | 19 | 26.9 |  |  | 
6 | AGAGCCGGCACUGAGGAUAUUCAUAAUAAAACAUGAGGAUCACCCAUGUAGGCCAGAAGGCCUUGGGAGAAGGCAGGUCGGCUCA [Mat - Same State 2 - Mod of UCT - D67] (puzzle: Same State 2) |  |  |  | 16.7 | 176 | 269
7 | AGCAAUCUAUCUCAGGAUAUCAUGUCAAAGACAUGAGGAUCACCCAUGUACCAGGAAACUGGUUAUGAGAAGGGAGAUAGAUUGA [Mat - Same State 2 - Mod - D29] (puzzle: Same State 2) |  |  |  | 154 | 52.2 | 177
8 | AGCCGAGACACAGGAUAUACAUGUUUACAUGAGGAUCACCCAUGUAGCAACACGUGGUAGUGAUUGUAGAAGGGUGCUCGGCGC [Omei SS(NG)2 Cv12] (Eterna round: R96, puzzle: Same State NG 2) | 15.8 | 12.6 | 23.3 |  |  | 
9 | AGCCGAGACUGAGGAUAUAGAAAUCUACAUGAGGAUCACCCAUGUAACAACACGUGGUAGUGAUUCUAGAAGGCGGCUCGGCGC [Omei SS(NG)2 Cv4] (Eterna round: R96, puzzle: Same State NG 2) | 113 | 279 | 1150 |  |  | 
10 | AGCUAUCGAAAACGAUAGCAAAAGCAUGUACAUGAGGAUCACCCAUGUCAUGUACAAGUUUUUUGCUCGUCUUAAAA [Zipper 23 - 13] (puzzle: Sensor for hsa-mir-208a) |  |  |  | 107 | 13.1 | 121
11 | AGCUAUCGAAAACGAUAGCAAGAGCAUGUACAUGAGGAUCACCCAUGUCAUGUACAAGCUUUUUGCUCGUCUUAAAA [Zipper 23 - 2] (puzzle: Sensor for hsa-mir-208a) |  |  |  | 330 | 17 | 490
12 | AGCUAUCGCGUACGAUAGCUGAAGCAUGUACAUGAGGAUCACCCAUGUCAUGUGCAGGCUUUUUGCUCGUCUUAUUG [JL-shm-2.30 JL mod] (puzzle: Sensor for hsa-mir-208a) |  |  |  | 68.9 | 13.3 | 75.1
13 | AGCUAUCGCGUACGAUAGCUGAAGCGUGUACAUGAGGAUCACCCAUGUCAUGUGCAGGCUUUUUGCUCGUCUUAUUG [JL-shm-2.31 JL mod] (puzzle: Sensor for hsa-mir-208a) |  |  |  | 640 | 17.2 | 648
14 | AGCUAUUACGAAGGAUAUUGUAACAUGAGGAUCACCCAUGUUUACAUGAUUAAUUGUGAUCACGUCGAGAAGGUUGUACUAACA [SameState NG2 #33] (Eterna round: R96, puzzle: Same State NG 2) | 17.5 | 16.5 | 19 |  |  | 
15 | AGCUUACAUGAGGAUCACCCAUGUUUUAGCCAGACAGGAUAUGGGUAUCUAAAACACAACCCAGAAGGGUCAAAAC [Usveriri] (puzzle: Same State 1) |  |  |  | 57.5 | 233 | 489
16 | AGCUUUUAAUUAGGAUAUGGUCACAUGAGGAUCACCCAUGUAACGAUGAUAUAAUGUGGUCAAGACUAGAAGGGAUCGCUAACA [SameState NG2 #69] (Eterna round: R96, puzzle: Same State NG 2) | 320 | 282 | 284 |  |  | 
17 | AGGCUCAGACGAGGAUAUACGUGGUCACAUGAGGAUCACCCAUGUCUCGAGCUUCGGCUCGAGGCGUAGAAGGCGUCUGAGCCA [SSNG2/6-A1] (Eterna round: R96, puzzle: Same State NG 2) | 152 | 201 | 268 |  |  | 
18 | AGGCUCAGACGAGGAUAUGGUCAUGGCGCUUCGGCGCAUACAUGAGGAUCACCCAUGUAGGGUGAUCAGAAGGCGUCUGAGCCA [SSNG2/9-A1] (Eterna round: R96, puzzle: Same State NG 2) | 76.8 | 255 | 365 |  |  | 
19 | AGGCUCAGAGCAGGAUAUACGUGGUCACAUGAGGAUCACCCAUGUCUCGAGCUUCGGCUCGAGGCGUAGAAGGGCUCUGAGCCA [SSNG2/6-B1] (Eterna round: R96, puzzle: Same State NG 2) | 140 | 204 | 330 |  |  | 
20 | AGGCUCGUGCUAGGAUAUCUAGGAUAUGGACGAGGAUUACCCGAGGAGCAUUAGCCCACCAGAGGAGAGAAGGAGCUACAUGCG [pwkr ssNG2 2F5 2FMN.12] (Eterna round: R96, puzzle: Same State NG 2) | 1320 | 509 | 513 |  |  | 
21 | AGGGAGGAUGCAGGAUAUACAAGACAUGAGGAUCACCCAUGUACCUUGUGGAGAAGAAAGGAGAGGUAGAAGGGUAGUGAGGAA [Default title] (Eterna round: R96, puzzle: Same State NG 2) | 11.7 | 13 | 16.4 |  |  | 
22 | AGGGUACAUGAGGAUCACCCAUGUGGGUCGGUCGCAGGAUAUGCCCGUGGGCGCUGGCGGGCAGAAGGGUGCCGAA [Same State1-IX] (Eterna round: R96, puzzle: Same State 1) | 81.4 | 187 | 341 |  |  | 
23 | AGUCCAGCCUGAGCUGGACAAAAGCAUGUACAUGAGGAUCACCCAUGUCAUGUACAAGCUUUUUGCUCGUCAAAAUA [Mat - hsa-mir-208a - Mod of JL - D29] (puzzle: Sensor for hsa-mir-208a) |  |  |  | 396 | 16.5 | 480
24 | AGUCCAGCCUGAGCUGGACAAAAGCAUGUACAUGAGGAUCACCCAUGUUCAUGUACAAGCUUUUUGCUCGUCUAAAA [Mat - hsa-mir-208a - Mod of JL - 50] (puzzle: Sensor for hsa-mir-208a) |  |  |  | 414 | 16.2 | 540
25 | AGUCCAGCCUGAGCUGGACAAAAGCAUGUACAUGAGGAUCACCCAUGUUCAUGUACAAGCUUUUUGCUCGUCUUACU [salish99_208a_r3_077] (puzzle: Sensor for hsa-mir-208a) |  |  |  | 618 | 14.6 | 635
26 | AGUCCAGCCUGAGCUGGACAAAAGCAUGUACAUGAGGAUCACCCAUGUUCAUGUGCAAGCUUUUUGCUCGUCUUAAA [Zipper 52 - 4] (Eterna round: R96, puzzle: Sensor for hsa-mir-208a) | 71.5 | 10.7 | 69.8 |  |  | 
27 | AGUCCAGCCUGAGCUGGACAAAAGCAUGUACAUGAGGAUCACCCAUGUUCAUGUGCAAGCUUUUUGCUCGUCUUAAA [Zipper 52 - 4] (puzzle: Sensor for hsa-mir-208a) |  |  |  | 64.9 | 11.4 | 71.2
